B1: DOM23h-271-101 (VHH)
VHH: EVQLLESGGGLVQPGGSLRLSCAASGFTFTEYRMWWVRQAPGKGLEWVSAIEPIGNRTYYADSVKGRFTISRDNSKNTLYLQMNSLRAEDTAVYYCAKQIPGRKWTANGRKDYWGQGTLVTVSS
notes: human VH dAb from phage display maturation of DOM23h-271-7; not shown: C-terminal FLAG tag from vector pDOM10
B2: DOM23h-271-102 (VHH)
VHH: EVQLLESGGGLVQPGGSLRLSCAASGSTFTEYRMWWVRQAPGKGLEWVSAIEPIGHRTYYADSVKGRFTISRDNSKNTLYLQMNSLRAEDTAVYYCAKQIPGRKWTANSRFDYWGQGTLVTVSS
notes: as for B1
B3: DOM23h-271-106 (VHH)
VHH: EVQLLESGGGLVQPGGSLRLSCAASGFTFTEYRMWWVRQAPGKGLEWVSAIEPIGNRTYYADSVKGRFTISRDNSKNTLYLQMNSLRAEDTAVYYCAKQFPGRKWTANSRSDYWGQGTLVTVSS
notes: human VH dAb from phage display maturation of DOM23h-271-7; also called 271-106a; 271-106b; not shown: C-terminal FLAG tag from vector pDOM10
B4: DOM23h-271-105 (VHH)
VHH: EVQLLESGGGLVQPGGSLRLSCAASGFTFTEYRMWWVRQAPGKGLEWVSAIEPIGNRTYYADSVKGRFTISRDNSKNTLYLQMNSLRAEDTAVYYCAKQIPGQRWTGNSRFDYWGQGTLVTVSS
notes: as for B1
B5: DOM23h-271-114 (VHH)
VHH: EVQLLESGGGLVQPGGSLRLSCAASGFTFTEYRMWWVRQAPGKGLEWVSAIEPIGNRTYYADSVKGRFTISRDNSKNTLYLQMNSLRAEDTAVYYCAKQIPGRKGTANSRFDYWGQGTLVTVSS
notes: as for B1
B6: DOM23h-439-25 (VHH)
VHH: EVQLLESGGGLVQPGGSLRLSCAASGFTFGTEQMWWVRQAPGKGLEFVSRIDSPGGRTYYADSVKGRFTISRDNSKNTLYLQMNSLRAEDTAVYYCAKRRPTGVSGTFYDYWGQGTLVTVSS
notes: expressed from pC10
B7: DOM23h-813 (VHH, not shown: small tags and cut ends)
VHH: EVQLLESGGGLVQPGGSLRLSCAASGSTFTDDRMWWVRQAPGKGLEWVSAIQPDGHTTYYADSVKGRFTISRDNSKNTLYLQMNSLRAEDTAVYYCAEQDVKGSSSFDYWGQGTLVTVSS
B8: DOM23h-802 (VHH, not shown: small tags and cut ends)
VHH: EVQLLESGGGLVQPGGSLRLSCAASGFTFSEGTMWWVRQAPGKGLEWVSAILAAGSNTYYADSVKGRFTISRDNSKNTLYLQMNSLRAEDTAVYYCAKKRQERDGFDYWGQGTLVTVSS
B9: DOM23h-854 (VHH, not shown: small tags and cut ends)
VHH: EVQLLESGGGLVQPGGSLRLSCAASGFTFAQDRMWWVRQAPGKGLEWVSAISGSGGSTYYADSVKGRFTISRDNSKNTLYLQMNSLRAEDTAVYYCAKQDLHGTSSLFDYWGQGTLVTVSS
B10: DOM23h-842 (VHH, not shown: small tags and cut ends)
VHH: EVQLLESGGGLVQPGGSLRLSCAASGFTFDDSEMAWARQAPGKGLEWVSLIRRNGNATYYADSVKGRFTISRDNSKNTLYLQMNSLRAEDTAVYYCAKVTKDRSVLFDYWGQGTLVTVSS
B11: DOM23h-883 (VHH, not shown: small tags and cut ends)
VHH: EVQLLESGGGLVQPGGSLRLSCAASGFTFVNYRMWWVRQAPGKGLEWVSAISGSGDKTYYADSVKGRFTISRDNSKNTLYLQMNSLRAEDTAVYYCAKHGLSFDYWGQGTLVTVSS
B12: DOM23h-903 (VHH, not shown: small tags and cut ends)
VHH: EVQLLESGGGLVQPGGSLRLSCAASGFTFNDMRMWWVRQAPGKGLEWVSVINADGNRTYYADSVKGRFTISRDNSKNTLYLQMNSLRAEDTAVYYCAKDGLPFDYWGQGTLVTVSS
B13: DOM23h-831 (VHH, not shown: small tags and cut ends)
VHH: EVQLLESGGGLVQPGGSLRLSCAASGFTFEAYKMTWVRQAPGKGLEWVSYITPSGGQTYYADSVKGRFTISRDNSKNTLYLQMNSLRAEDTAVYYCAKYGSSFDYWGQGTLVTVSS
B14: DOM23h-830 (VHH, not shown: small tags and cut ends)
VHH: EVQLLESGGGLVQPGGFLRLSCAASGFTFEGYRMWWVRQAPGKGLEWVSAIDSLGDRTYYADSVKGRFTISRDNSKNTLYLQMNSLRAEDTAVYYCAKQGLTHQSPSTFDYWGQGTLVTVSS
B15: DOM23h-874 (VHH, not shown: small tags and cut ends)
VHH: EVQLLESGGGLVQPGGSLRLSCAASGFTFTSYRMWWVRQAPGKGLEWVSVIDSTGSATYYADSVKGRFTISRDNSKNTLYLQMNSLRAEDTAVYYCAKQQAGSAMGEFDYWGQGTLVTVSS
B16: DOM23h-840 (VHH, not shown: small tags and cut ends)
VHH: EVQLLESGGGLVQPGGSLRLSCAASGFTFGDGRMWWVRQAPGKGLEWVSAIEGAGSDTYYADSVKGRFTISRDNSKNTLYLQMNSLRAEDTAVYYCAKQASRNSPFDYWGQGTLVTVSS
B17: DOM23h-815 (VHH, not shown: small tags and cut ends)
VHH: EVQLLESGGGLVQPGGSLRLSCAASGFTFAEDRMWWVRQAPGKGLEWVSAIDPQGQHTYYADSVKGRFTISRDNSKNTLYLQMNSLRAEDTAVYYCAKQSTGSATSDYWGQGTLVTVSS
B18: DOM23h-866 (VHH, not shown: small tags and cut ends)
VHH: EVQLLESGGGLVQPGGSLRLSCAASGFTFSNYWMRWARQAPGKGLEWVSYITPKGDHTYYADSVKGRFTISRDNSKNTLYLQMNSLRAEDTAVYYCAESLHNERVKHFDYWGQGTLVTVSS
B19: DOM23h-865 (VHH, not shown: small tags and cut ends)
VHH: EVQLLESGGGLVQPGGSLRLSCAASGFTFRSYEMTWVRQAPGKGLEWVSKIDPSGRFTYYADSVKGRFTISRDNSKNTLYLQMNSLRAEDTAVYYCAKGRTDLQLFDYWGQGTLVTVSS
B20: DOM23h-828 (VHH, not shown: small tags and cut ends)
VHH: EVQLLESGGGLVQPGGSLRLSCAASGFTFMSYRMWWVRQAPGKGLEWVSAISPSGSDTYYADSVKGRFTISRDNSKNTLYLQMNSLRAEDTAVYYCAKQVVEYSRTHKGVFDYWGQGTLVTVSS
B21: DOM23h-850 (VHH, not shown: small tags and cut ends)
VHH: EVQLLESGGGLVQPGGSLRLSCAASGFTFDAARMWWARQAPGKGLEWVSAIADIGNTTYYADSVKGRFTISRDNSKNTLYLQMNSLRAEDTAVYYCAKQSGSEDHFDYWGQGTLVTVSS
B22: DOM23h-803 (VHH, not shown: small tags and cut ends)
VHH: EVQLLESGGGLVQPGGSLRLSCAASGFTFSAGRMWWVRQAPGKGLEWVSAINRDGTRTYYADSVKGRFTISRDNSKNTLYLQMNSLRAEDTAVYYCAKHDDGHGNFDYWGQGTLVTVSS

“And” between values parts separate entries of the source, which are not always exact repeats. Identical values can stand only once.

These results are taken from patent publication US20150361176A1 (GlaxoSmithKline, published 2015).

The target of the first experiment is T1, recombinant human TGF-β RII/Fc chimera protein (human, UniProt P37173 24-159).
T1 construct: range 24-159; Made in HEK-F cells; Biotinylated where it was put on SA chips, otherwise captured by anti-human IgG; also called human TGFbRII/Fc; hRII-Fc; not shown: Fc region of human IgG1
T1 sequence (P37173 24-159 limits assumed, change not shown): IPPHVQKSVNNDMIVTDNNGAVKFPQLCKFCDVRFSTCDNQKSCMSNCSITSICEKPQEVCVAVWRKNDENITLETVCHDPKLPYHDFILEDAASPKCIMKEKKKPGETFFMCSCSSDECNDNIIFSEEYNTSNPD
As to the kind of experiment: SPR Biacore T100, human TGFbRII-FC, 1:1 model. The protocol:
Triplet or doped libraries in separate CDR1, CDR2 and CDR3 pools were subjected to rounds of phage selection as described above against either biotinylated human TGF-β RII/Fc antigen over 4 rounds in concentrations of 10 nM, 1 nM, 100 pM and 20 pM respectively, or two rounds of selection using 20 pM followed by 2 pM antigen. Inserts from phage selections were cloned into the pDOM10 expression vector and supernatants with off rates improved over parent were selected for further study. Domain antibodies were expressed and purified their affinity and bioactivity against human TGF-β RII/Fc antigen tested on the BIACORE™ T100 and in the Cell sensor assay described above (data not shown).
BIACORE™ analysis was carried out using a capture surface on a CM4 chip. Anti-human IgG was used as the capturing agent and coupled to a CM4 biosensor chip by primary amine coupling. The Antigen molecule fused to the human Fc was captured on this immobilised surface to a level from 250 to 300 resonance units and defined concentrations of Domain antibodies diluted in running buffer were passed over this captured surface. An injection of buffer over the captured antigen surface was used for double referencing. […] All runs were carried out at 25° C. using HBS-EP buffer as running buffer. Data were generated using the BIACORE™ T100 and fitted to the 1:1 binding model inherent to the software.
Take B1: the dissociation constant (Kd) was 5.4 nM, the off-rate constant (koff) worked out at 0.0201 s⁻¹ and the kon was determined as 3.73e+06 M⁻¹ s⁻¹. For B2, in that order: 1.64 nM, 0.0153 s⁻¹ and 9.35e+06 M⁻¹ s⁻¹.

For the molecule B3, the dissociation constant (Kd) is 3.16 nM and 2.88 nM; the koff was 0.0233 s⁻¹ and 0.0195 s⁻¹; the association rate constant (kon) is 7.39e+06 M⁻¹ s⁻¹ and 6.77e+06 M⁻¹ s⁻¹. With B4, the Kd was 2.27 nM and 2.6 nM; the dissociation rate constant (koff) is 0.00747 s⁻¹ and 0.00798 s⁻¹; the on-rate constant (kon) was 3.29e+06 M⁻¹ s⁻¹ and 3.07e+06 M⁻¹ s⁻¹. With B5, the Kd is 6.8 nM, the dissociation rate constant (koff) came out at 0.0708 s⁻¹ and the on-rate (kon) turned out to be 1.04e+07 M⁻¹ s⁻¹.

The next experiment deals with T2, human TGF-βRII on cells (SBE-bla HEK 293T cells; A549 cells) (human, UniProt P37173 23-567). As to the kind of experiment: cell-based or functional assay.
T2 sequence (P37173 23-567): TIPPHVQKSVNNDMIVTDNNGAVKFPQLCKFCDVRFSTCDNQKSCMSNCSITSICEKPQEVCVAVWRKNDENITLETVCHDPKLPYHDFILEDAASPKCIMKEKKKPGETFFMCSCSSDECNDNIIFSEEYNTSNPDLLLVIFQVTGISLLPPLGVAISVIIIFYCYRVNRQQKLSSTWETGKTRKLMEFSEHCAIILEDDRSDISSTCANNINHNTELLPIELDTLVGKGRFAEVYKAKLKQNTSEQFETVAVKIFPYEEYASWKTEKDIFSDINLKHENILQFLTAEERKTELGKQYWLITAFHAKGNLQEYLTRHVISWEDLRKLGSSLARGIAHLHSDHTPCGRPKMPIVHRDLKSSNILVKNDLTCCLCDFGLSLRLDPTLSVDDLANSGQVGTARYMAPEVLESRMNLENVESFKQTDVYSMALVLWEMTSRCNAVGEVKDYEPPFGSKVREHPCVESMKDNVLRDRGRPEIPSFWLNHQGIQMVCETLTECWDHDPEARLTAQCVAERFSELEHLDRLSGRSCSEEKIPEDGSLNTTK
Regarding B6, the “IC50 nM, Mean (SBE-bla HEK 293T cell sensor assay)” value is 4 nM.

A further experiment has as its target T3, cynomolgus TGF-β RII/Fc (cynomolgus).
T3 construct: extracellular domain; also called Cyno TGFBRII; Cyno TGFbRII
The experiment can be described thus: SPR Biacore T200, receptor-Fc captured by anti-human IgG, dAb as analyte, 1:1 model. The protocol: (§1) Anti-human IgG was immobilised on a Biacore CM4 chip by primary amine coupling according to the manufacturer's instructions. Human TGF-β RII/Fc, cynomolgus TGF-β RII/Fc or human Fc fragment were captured on this surface. Domain antibodies were passed over the two captured receptors at 3 concentrations of 100, 10 and 1 nM (DOM23h-439 dAbs) or 100, 25 and 6.25 nM (DOM23h-271 dAbs). Only the 100 nM concentration of each dab was passed over human Fc fragment to confirm specificity of binding to the extracellular TGF-β RII domain. An injection of buffer over the captured antigen surface was used for double referencing. […] All runs were carried out at 25° C. using HBS-EP buffer as running buffer. Data were generated using the BIACORE™ T200 and fitted to the 1:1 binding model inherent to the software. […] The DOM23h-271 dAbs and the DOM23h-439 lineages were run in separate experiments.
For the molecule B6, the Kd was 0.304 nM, the koff is 0.00273 s⁻¹ and the association rate constant (kon) was found to be 8.99e+06 M⁻¹ s⁻¹.

Another experiment concerns the target T1, recombinant human TGF-β RII/Fc chimera …. Described as above. The protocol: as §1
Turning to B6, the dissociation constant (Kd) was 0.0817 nM, the koff worked out at 0.000634 s⁻¹ and the kon turned out to be 7.77e+06 M⁻¹ s⁻¹.

For another experiment, the target named is T2, human TGF-βRII on cells (SBE-bla HEK …). As to the kind of experiment: cell-based or functional assay. This is another data set of the same source.
As to B7, the “IC50 nM, Mean (SBE-bla HEK 293T cell sensor assay, h2)” value was more than 9330 nM. In the case of B8, the “IC50 nM, Mean (SBE-bla HEK 293T cell sensor assay, h2)” value is more than 11100 nM. The same measure, in the same setting: under B9 stands more than 9550 nM. The same measure, in the same setting: the figure for B10 is 2040 nM. The same measure, in the same setting: the figure for B11 is 10100 nM.

Take B12: the “IC50 nM, Mean (SBE-bla HEK 293T cell sensor assay, h2)” value came out at 1050 nM. On the same count and under the same terms, under B13 stands more than 3130 nM. As to B14, the “IC50 nM, Mean (SBE-bla HEK 293T cell sensor assay, h2)” value stood at 6300 nM. The same measure, in the same setting: under B15 stands more than 925 nM. Still for that read-out and setting: the figure for B16 is 2920 nM. On the same count and under the same terms, the figure for B17 is 7120 nM; for B18 it is more than 1760 nM; for B19 it is 5560 nM.

With B20, the “IC50 nM, Mean (SBE-bla HEK 293T cell sensor assay, h2)” value worked out at 9900 nM. The same measure, in the same setting: under B21 stands 5350 nM; under B22, more than 11600 nM.
